Literature values, collected in paper PMC7687155.

Biological target: Sep15 (Homo sapiens) (UniProt O60613)
Sequence (O60613 32-165): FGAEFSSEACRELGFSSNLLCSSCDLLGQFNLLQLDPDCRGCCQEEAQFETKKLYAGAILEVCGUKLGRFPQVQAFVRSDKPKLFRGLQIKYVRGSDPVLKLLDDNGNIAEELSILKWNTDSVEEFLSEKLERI

UGGT1, sequence (Q9NYU2 43-1555): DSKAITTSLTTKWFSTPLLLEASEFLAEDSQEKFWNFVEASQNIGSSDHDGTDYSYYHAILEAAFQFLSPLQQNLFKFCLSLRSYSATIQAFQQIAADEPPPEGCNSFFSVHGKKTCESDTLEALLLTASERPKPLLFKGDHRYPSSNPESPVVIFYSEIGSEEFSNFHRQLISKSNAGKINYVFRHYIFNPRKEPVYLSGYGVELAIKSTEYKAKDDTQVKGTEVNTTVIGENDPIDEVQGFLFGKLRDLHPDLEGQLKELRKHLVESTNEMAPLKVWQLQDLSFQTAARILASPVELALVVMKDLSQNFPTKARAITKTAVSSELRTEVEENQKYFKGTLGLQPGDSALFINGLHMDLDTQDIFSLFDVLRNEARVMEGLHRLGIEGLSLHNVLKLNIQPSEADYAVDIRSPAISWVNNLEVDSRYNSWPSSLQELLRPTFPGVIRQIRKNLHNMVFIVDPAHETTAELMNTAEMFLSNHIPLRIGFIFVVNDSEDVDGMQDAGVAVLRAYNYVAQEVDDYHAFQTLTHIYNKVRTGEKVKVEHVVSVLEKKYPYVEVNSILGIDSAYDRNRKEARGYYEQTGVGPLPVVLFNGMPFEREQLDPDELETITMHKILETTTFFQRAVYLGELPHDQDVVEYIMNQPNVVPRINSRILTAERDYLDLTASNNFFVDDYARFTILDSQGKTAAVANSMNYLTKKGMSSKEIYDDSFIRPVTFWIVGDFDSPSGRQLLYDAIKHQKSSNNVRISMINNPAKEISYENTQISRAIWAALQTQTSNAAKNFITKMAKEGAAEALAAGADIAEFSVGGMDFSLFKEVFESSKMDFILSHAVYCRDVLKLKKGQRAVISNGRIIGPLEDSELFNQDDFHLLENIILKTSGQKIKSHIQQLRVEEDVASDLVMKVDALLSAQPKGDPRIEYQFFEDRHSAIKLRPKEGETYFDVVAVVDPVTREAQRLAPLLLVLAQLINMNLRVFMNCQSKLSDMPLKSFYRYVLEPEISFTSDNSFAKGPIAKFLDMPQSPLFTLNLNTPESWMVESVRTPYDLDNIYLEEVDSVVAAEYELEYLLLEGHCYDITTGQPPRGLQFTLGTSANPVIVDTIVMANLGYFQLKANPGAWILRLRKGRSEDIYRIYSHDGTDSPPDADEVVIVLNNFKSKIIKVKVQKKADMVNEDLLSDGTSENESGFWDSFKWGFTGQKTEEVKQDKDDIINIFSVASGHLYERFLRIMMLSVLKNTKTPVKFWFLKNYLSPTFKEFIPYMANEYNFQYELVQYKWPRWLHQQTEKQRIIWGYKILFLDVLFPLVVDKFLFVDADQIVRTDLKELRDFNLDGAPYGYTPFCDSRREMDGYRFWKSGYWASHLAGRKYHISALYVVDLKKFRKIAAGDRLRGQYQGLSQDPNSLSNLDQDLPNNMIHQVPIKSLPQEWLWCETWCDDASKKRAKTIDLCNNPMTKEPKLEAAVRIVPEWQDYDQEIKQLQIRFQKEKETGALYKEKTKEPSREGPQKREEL

In the case of UGGT1 (from UniProt Q9NYU2), the Kd is given as 20 nM.
